# In PMC3636572:
# Legend:
# beta-thrombin = beta-thrombin (UniProt P00734;P00734;P00734 328-363;364-425;437-622); experiment: filter binding
# prothrombin [1] = target: T1, prothrombin (Homo sapiens, UniProt P00734 44-622); experiment: filter binding
# porcine thrombin = porcine thrombin (pig, UniProt Q19AZ8;Q19AZ8 316-364;365-623); experiment: filter binding
# prothrombin [2] = target: T1, prothrombin; experiment: SPR
Binder,Kd (beta-thrombin) [nM],Kd (prothrombin [1]) [nM],Kd (porcine thrombin) [nM],Kd (prothrombin [2]) [nM]
"RNAR9D-14T (XNA, 2'-fluoro on all C and U; purines 2'-OH) RNA: GGCGGUCGAUCACACAGUUCAAACGUAAUAAGCCAAUGUACGAGGCAGACGACUCGCC",20,10,5,
"biotin-RNAR9D-14T (XNA, 2'-fluoro on all C and U; purines 2'-OH) RNA: GGCGGUCGAUCACACAGUUCAAACGUAAUAAGCCAAUGUACGAGGCAGACGACUCGCC",,,,1.4
